The record followed here is patent US7495116B2, “Phospholipid derivative” (NOF Corporation, priority 2002, dated 2009).

The nature of the data set: Determination of salt tolerant effect (clouding point, evaluation as surfactant). Type of data set: physicochemical. The conditions noted are these: 1 weight % solution in 5 weight % aqueous sodium sulfate. As for the experimental part:
As a result of the measurement, the clouding point was not detectable even when the temperature was raised up to 80° C.

Consider “monomethylpolyoxyethylenecarbamyl (Molecular Weight: 2000) distearoylphosphatidylethanolamine [Comparative Synthesis Example 1]”, for which the Clouding point stood at 50.0 °C.
